Assays:
[1] = biological target: T1, recombinant mature dimeric myostatin (human and mouse (mature sequences 100% …, UniProt O08689 268-376)); assay: myostatin capture ELISA: polyclonal anti-myostatin coated, myostatin 1 ug/ml captured, antibody titrated, anti-human kappa-HRP, OPD, A490
T1 construct: also called GDF-8; mature myostatin
T1 sequence: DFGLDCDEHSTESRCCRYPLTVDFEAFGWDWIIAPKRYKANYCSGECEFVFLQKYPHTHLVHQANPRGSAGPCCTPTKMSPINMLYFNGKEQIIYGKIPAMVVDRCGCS
Protocol: The eleven affinity purified CDRH3 variants were also analyzed for binding activity in the myostatin capture ELISA.
(§1) A 96-well ELISA plate was coated at 4° C. overnight with 2.5 μg/ml polyclonal Antibody to Myostatin (R&D Systems AF788). This plate was then washed 3-times in wash buffer (PBS, 0.1% Tween-20) and blocked for 1 hour at room temperature with block solution (PBS, 0.1% Tween-20+1% bovine serum albumin [BSA]). Then, myostatin was added at 1 μg/ml in block buffer during 1 hour followed by 3-times in wash buffer. Antibodies were then titrated out to a suitable concentration range (approximately 10 to 0.01 μg/ml), added to the plate and incubated for 1 hour at room temperature. The plate was then washed 3-times in wash buffer. An anti-human kappa light chain HRP-conjugated antibody (Sigma A7164, used according to the manufacturer's instructions) was used to detect binding of humanized or chimeric antibodies, such as 10B3 chimera (HcLc) or H0L0. The plate was then washed 3-times in wash buffer and developed with an OPD substrate (according to the manufacturer's instructions) and read at 490 nm on a plate reader.

[2] = biological target: T1, recombinant mature dimeric myostatin; assay: myostatin competition ELISA, biotinylated myostatin on streptavidin, competitor 10B3
Protocol: The protocol set out in 5.7 was used but the plates were initially coated at 4° C. overnight with 5 μg/ml of streptavidin. Biotinylated myostatin was added at 0.3 μg/ml block buffer during 1 hour followed by 3-times in wash buffer. 10B3 (final concentration of 0.2 μg/ml) was added into each well and mixed with antibodies titrated out to a suitable concentration range (approximately 10 to 0.01 μg/ml). An anti-mouse HRP-conjugated antibody (DAKO P0260, used according to the manufacturer's instructions) was used to detect binding of the 10B3 antibody.

[3] = biological target: T1, recombinant mature dimeric myostatin; assay: myostatin competition ELISA, polyclonal Ab capture of myostatin, competitor 10B3
Protocol: as §1
The protocol set out in 5.7 was used with the addition of 10B3 (final concentration of […]) to each well and mixed with the antibodies titrated out to a suitable concentration range (approximately 10 to 0.01 μg/ml). An anti-mouse HRP-conjugated antibody (DAKO P0260, used according to the manufacturer's instructions) was used to detect binding of the 10B3 antibody.

[4] = biological target: T1, recombinant mature dimeric myostatin; assay: myostatin competition ELISA, direct capture of myostatin, competitor 10B3
Protocol: as §1
The protocol set out in 5.7 was used but the plates were initially coated at 4° C. overnight with 0.2 μg/ml of myostatin (recombinant in-house, see 1.1 above). 10B3 (final concentration of 0.3 μg/ml) was added into each well and mixed with antibodies titrated out to a suitable concentration range (approximately 10 to 0.01 μg/ml). An anti-mouse HRP-conjugated antibody (DAKO P0260, used according to the manufacturer's instructions) was used to detect binding of the 10B3 antibody.

[5] = biological target: T1, recombinant mature dimeric myostatin; assay: cell-based or functional assay
[6] = biological target: T1, recombinant mature dimeric myostatin; assay: cell-based or functional assay; remark: listed apart in the source
[7] = biological target: T1, recombinant mature dimeric myostatin; assay: ActRIIb neutralisation ELISA: inhibition of 2 nM biotinylated myostatin binding to coated ActRIIb
Protocol: Recombinant soluble ActRIIb (R&D Systems 339-RBB) was coated in wells of an ELISA plate at 1 μg/ml in carbonate buffer overnight at 4° C. Plates were blocked with PBS containing 0.1% tween 20 and 0.1% BSA and washed following standard ELISA protocols. In parallel, 2 nM biotinylated myostatin (in-house reagent, described above) was pre-incubated with a dilution series of the antibodies of Tables 21 and 22 for 30 minutes at 37° C. The biotinylated myostatin:antibody reactions were then added (50 μl/well) to the ActRIIb coated plate for 1 hour at 37° C. Standard wash procedures were followed prior to addition of 50 μl per well of a 1:200 diluted streptavidin-HRP conjugate (R&D Systems. #890803) followed by a further 37° C. incubation for 1 hour. Plates were again washed and assayed at absorbance 490 nm following substrate (R&D Systems, #DY999) and acid stop solution treatment.

B1: H2L2-C91S_F100G_N (antibody, V domains shown)
VH: QVQLVQSGAEVKKPGASVKVSCKASGYSFTGYFMHWVRQAPGQGLEWMGNIYPYNGVSNYNQRFKARVTMTTDTSTSTAYMELRSLRSDDTAVYYCARRYYYGTGPADWYNDVWGQGTLVTVSS
VL: DIQMTQSPSSLSASVGDRVTITCKASQDINSYLSWFQQKPGKAPKSLIYRANRLVDGVPSKFSGSGSGTDYTLTISSLQPEDFATYYCLQSDEFPLTFGQGTKLEIKR
- binding result [1]: binds

B2: H2L2-C91S_Y96L (antibody, V domains shown)
VH: QVQLVQSGAEVKKPGASVKVSCKASGYSFTGYFMHWVRQAPGQGLEWMGNIYPYNGVSNYNQRFKARVTMTTDTSTSTAYMELRSLRSDDTAVYYCARRLYYGTGPADWYFDVWGQGTLVTVSS
VL: DIQMTQSPSSLSASVGDRVTITCKASQDINSYLSWFQQKPGKAPKSLIYRANRLVDGVPSKFSGSGSGTDYTLTISSLQPEDFATYYCLQSDEFPLTFGQGTKLEIKR
- rank among the five most potent, top (1) to bottom (5) [2]: 5 rank

B3: H2L2-C91S_G100A_K (antibody, V domains shown)
VH: QVQLVQSGAEVKKPGASVKVSCKASGYSFTGYFMHWVRQAPGQGLEWMGNIYPYNGVSNYNQRFKARVTMTTDTSTSTAYMELRSLRSDDTAVYYCARRYYYGTKPADWYFDVWGQGTLVTVSS
VL: DIQMTQSPSSLSASVGDRVTITCKASQDINSYLSWFQQKPGKAPKSLIYRANRLVDGVPSKFSGSGSGTDYTLTISSLQPEDFATYYCLQSDEFPLTFGQGTKLEIKR
- binding result [1]: binds

B4: H2L2-C91S_P100B_F (antibody, V domains shown)
VH: QVQLVQSGAEVKKPGASVKVSCKASGYSFTGYFMHWVRQAPGQGLEWMGNIYPYNGVSNYNQRFKARVTMTTDTSTSTAYMELRSLRSDDTAVYYCARRYYYGTGFADWYFDVWGQGTLVTVSS
VL: DIQMTQSPSSLSASVGDRVTITCKASQDINSYLSWFQQKPGKAPKSLIYRANRLVDGVPSKFSGSGSGTDYTLTISSLQPEDFATYYCLQSDEFPLTFGQGTKLEIKR
- rank among the five most potent, top (1) to bottom (5) [3]: 1 rank
- rank among the five most potent, top (1) to bottom (5) [4]: 1 rank
- Mean IC50, A204 in vitro activity assay [5]: 4.24 nM

B5: H2L2-C91S_G99S (antibody, V domains shown)
VH: QVQLVQSGAEVKKPGASVKVSCKASGYSFTGYFMHWVRQAPGQGLEWMGNIYPYNGVSNYNQRFKARVTMTTDTSTSTAYMELRSLRSDDTAVYYCARRYYYSTGPADWYFDVWGQGTLVTVSS
VL: DIQMTQSPSSLSASVGDRVTITCKASQDINSYLSWFQQKPGKAPKSLIYRANRLVDGVPSKFSGSGSGTDYTLTISSLQPEDFATYYCLQSDEFPLTFGQGTKLEIKR
- binding result [1]: binds

B6: HoLo (antibody, V domains shown)
VH: QVQLVQSGAEVKKPGASVKVSCKASGYTFTGYFMHWVRQAPGQGLEWMGNIYPYNGVSNYNQRFKARVTMTTDTSTSTAYMELRSLRSDDTAVYYCARRYYYGTGPADWYFDVWGQGTLVTVSS
VL: DIQMTQSPSSLSASVGDRVTITCKASQDINSYLSWFQQKPGKAPKSLIYRANRLVDGVPSKFSGSGSGTDFTLTISSLQPEDFATYYCLQCDEFPLTFGQGTKLEIKR
notes: also called H0L0; copies: 2 + 2
- binding result [1]: binds

B7: H2L2-C91S_V102N (antibody, V domains shown)
VH: QVQLVQSGAEVKKPGASVKVSCKASGYSFTGYFMHWVRQAPGQGLEWMGNIYPYNGVSNYNQRFKARVTMTTDTSTSTAYMELRSLRSDDTAVYYCARRYYYGTGPADWYFDNWGQGTLVTVSS
VL: DIQMTQSPSSLSASVGDRVTITCKASQDINSYLSWFQQKPGKAPKSLIYRANRLVDGVPSKFSGSGSGTDYTLTISSLQPEDFATYYCLQSDEFPLTFGQGTKLEIKR
- rank among the five most potent, top (1) to bottom (5) [3]: 2 rank
- rank among the five most potent, top (1) to bottom (5) [4]: 3 rank
- rank among the five most potent, top (1) to bottom (5) [2]: 4 rank
- Mean IC50, A204 in vitro activity assay [5]: 5.51 nM

B8: H9L5 (antibody, IgG1, V domains shown)
VH: QVQLVQSGAEVKKPGASVKISCKASGYSFTGYFMHWVRQAPGQGLEWIGNIYPYNSVSNYNQRFKAKATLTVDKSTSTAYMELRSLRSDDTAVYYCARRYYYGTGPADWYYDVWGQGTLVTVSS
VL: DIQMTQSPSSLSASVGDRVTITCKASQDINSYLSWFQQKPGKAPKTLIYRANRLVDGVPSKFSGSGSGTDYTLTISSLQPEDFATYYCLQSDEFPLTFGQGTKLEIKR
notes: Humanised IgG1/kappa
- IC50, myostatin responsive reporter gene neutralisation assay (A204) [6]: 4 nM
- IC50 [7]: 0.14 nM

B9: H7L5 (antibody, IgG1, V domains shown)
VH: QVQLVQSGAEVKKPGASVKVSCKASGYSFTGYFMHWVRQAPGQGLEWMGNIYPYNSVSNYNQRFKARVTMTVDKSTSTAYMELRSLRSDDTAVYYCARRYYYGTGPADWYYDVWGQGTLVTVSS
VL: DIQMTQSPSSLSASVGDRVTITCKASQDINSYLSWFQQKPGKAPKTLIYRANRLVDGVPSKFSGSGSGTDYTLTISSLQPEDFATYYCLQSDEFPLTFGQGTKLEIKR
notes: Humanised IgG1/kappa
- IC50, myostatin responsive reporter gene neutralisation assay (A204) [6]: 6.3 nM
- IC50 [7]: 0.028 nM

B10: H2L2-C91S_G99D (antibody, V domains shown)
VH: QVQLVQSGAEVKKPGASVKVSCKASGYSFTGYFMHWVRQAPGQGLEWMGNIYPYNGVSNYNQRFKARVTMTTDTSTSTAYMELRSLRSDDTAVYYCARRYYYDTGPADWYFDVWGQGTLVTVSS
VL: DIQMTQSPSSLSASVGDRVTITCKASQDINSYLSWFQQKPGKAPKSLIYRANRLVDGVPSKFSGSGSGTDYTLTISSLQPEDFATYYCLQSDEFPLTFGQGTKLEIKR
- rank among the five most potent, top (1) to bottom (5) [3]: 5 rank

B11: H2L2-C91S_P100B_I (antibody, V domains shown)
VH: QVQLVQSGAEVKKPGASVKVSCKASGYSFTGYFMHWVRQAPGQGLEWMGNIYPYNGVSNYNQRFKARVTMTTDTSTSTAYMELRSLRSDDTAVYYCARRYYYGTGIADWYFDVWGQGTLVTVSS
VL: DIQMTQSPSSLSASVGDRVTITCKASQDINSYLSWFQQKPGKAPKSLIYRANRLVDGVPSKFSGSGSGTDYTLTISSLQPEDFATYYCLQSDEFPLTFGQGTKLEIKR
- rank among the five most potent, top (1) to bottom (5) [4]: 5 rank
- rank among the five most potent, top (1) to bottom (5) [2]: 3 rank
- Mean IC50, A204 in vitro activity assay [5]: 4.53 nM

B12: H2L2-C91S_W100E_F (antibody, V domains shown)
VH: QVQLVQSGAEVKKPGASVKVSCKASGYSFTGYFMHWVRQAPGQGLEWMGNIYPYNGVSNYNQRFKARVTMTTDTSTSTAYMELRSLRSDDTAVYYCARRYYYGTGPADFYFDVWGQGTLVTVSS
VL: DIQMTQSPSSLSASVGDRVTITCKASQDINSYLSWFQQKPGKAPKSLIYRANRLVDGVPSKFSGSGSGTDYTLTISSLQPEDFATYYCLQSDEFPLTFGQGTKLEIKR
- binding result [1]: binds

— US20130142788A1 (published 2013)
